Reference: US20230002480A1

Assays:
Experiment in all cases: cell-based or functional assay
[1] = target: HIV-1 Env of pseudovirus WEAU_d15_410_787 (clade B (T/F)) (HIV-1)
[2] = target: HIV-1 Env of pseudovirus T251-18 (HIV-1)
[3] = target: HIV-1 Env of pseudovirus CNE53 (clade BC) (HIV-1)
[4] = target: HIV-1 Env of pseudovirus 3415.v1.c1 (HIV-1)
[5] = target: HIV-1 Env of pseudovirus HIV-16055-2.3 (clade C) (HIV-1)
[6] = target: HIV-1 Env of pseudovirus 246F C1G (clade C (T/F)) (HIV-1)
[7] = target: HIV-1 Env of pseudovirus C1080.c03 (HIV-1)
[8] = target: HIV-1 Env of pseudovirus Du172.17 (clade C) (HIV-1)
[9] = target: HIV-1 Env of pseudovirus C4118.c09 (HIV-1)
[10] = target: HIV-1 Env of pseudovirus A07412M1.vrc12 (clade D) (HIV-1)
[11] = target: HIV-1 Env of pseudovirus 89-F1_2_25 (clade CD) (HIV-1)
[12] = target: HIV-1 Env of pseudovirus 6540.v4.c1 (clade AC) (HIV-1)
[13] = target: HIV-1 Env of pseudovirus 3016.v5.c45 (clade D) (HIV-1)
[14] = target: HIV-1 Env of pseudovirus 6811.v7.c18 (clade CD) (HIV-1)
[15] = target: HIV-1 Env of pseudovirus 3817.v2.c59 (clade CD) (HIV-1)
[16] = target: HIV-1 Env of pseudovirus QH0692.42 (HIV-1)
[17] = target: HIV-1 Env of pseudovirus 231965.c01 (clade D) (HIV-1)
[18] = target: HIV-1 Env of pseudovirus X1632_S2_B10 (clade G) (HIV-1)
[19] = target: HIV-1 Env of pseudovirus 3103.v3.c10 (clade ACD) (HIV-1)
[20] = target: HIV-1 Env of pseudovirus 6952.v1.c20 (clade CD) (HIV-1)
[21] = target: HIV-1 Env of pseudovirus P1981_C5_3 (clade G) (HIV-1)
[22] = target: HIV-1 Env of pseudovirus 6480.v4.c25 (clade CD) (HIV-1)
[23] = target: HIV-1 Env of pseudovirus 231966.c02 (clade D) (HIV-1)
[24] = target: HIV-1 Env of pseudovirus 6545.v4.c1 (clade AC) (HIV-1)
[25] = target: HIV-1 Env of pseudovirus 3301.v1.c24 (clade AC) (HIV-1)
[26] = target: HIV-1 Env of pseudovirus 0815.v3.c3 (clade ACD) (HIV-1)
[27] = target: HIV-1 Env of pseudovirus X2131_C1_B5 (clade G) (HIV-1)
[28] = target: HIV-1 Env of pseudovirus 1012_11_TC21_3257 (HIV-1)
[29] = target: HIV-1 Env of pseudovirus TRO.11 (HIV-1)
[30] = target: HIV-1 Env of pseudovirus 6041.v3.c23 (clade AC) (HIV-1)

## N49P18.1 (antibody)
[1]
  IC50: 4.27 µg/mL
  IC80: 15.5 µg/mL
  MPI: 98
[2]
  IC50: 23 µg/mL
  IC80: > 50 µg/mL
  MPI: 70
[3]
  IC50: 4.08 µg/mL
  IC80: 21.8 µg/mL
  MPI: 97
[4]
  IC50: > 50 µg/mL
  IC80: > 50 µg/mL
  MPI: 48
[5]
  IC50: 8.04 µg/mL
  IC80: 22.6 µg/mL
  MPI: 97
[6]
  IC50: 3.4 µg/mL
  IC80: 20.2 µg/mL
  MPI: 97
[7]
  IC50: > 50 µg/mL
  IC80: > 50 µg/mL
  MPI: 50
[8]
  IC50: 6.52 µg/mL
  IC80: 21.3 µg/mL
  MPI: 92
[9]
  IC50: 8.63 µg/mL
  IC80: 23.2 µg/mL
  MPI: 93

## N49P7.1 (antibody)
[10]
  IC50, neutralization titer in TZM.bl cells: 0.232 µg/mL
  IC80, neutralization titer in TZM.bl cells: 1.07 µg/mL
  MPI, neutralization in TZM.bl cells: 100
[11]
  IC50, neutralization titer in TZM.bl cells: 41.6 µg/mL
  IC80, neutralization titer in TZM.bl cells: > 50 µg/mL
  MPI, neutralization in TZM.bl cells: 58
[12]
  IC50, neutralization titer in TZM.bl cells: 14.7 µg/mL
  IC80, neutralization titer in TZM.bl cells: > 50 µg/mL
  MPI, neutralization in TZM.bl cells: 75
[13]
  IC50, neutralization titer in TZM.bl cells: 0.559 µg/mL
  IC80, neutralization titer in TZM.bl cells: 2.54 µg/mL
  MPI, neutralization in TZM.bl cells: 100
[14]
  IC50, neutralization titer in TZM.bl cells: 0.321 µg/mL
  IC80, neutralization titer in TZM.bl cells: 1.46 µg/mL
  MPI, neutralization in TZM.bl cells: 100
[15]
  IC50, neutralization titer in TZM.bl cells: 1.48 µg/mL
  IC80, neutralization titer in TZM.bl cells: 8.36 µg/mL
  MPI, neutralization in TZM.bl cells: 97
[16]
  neutralization IC50: 0.764 µg/mL
  neutralization IC80: 2.71 µg/mL
  neutralization MPI: 100
[17]
  IC50, neutralization titer in TZM.bl cells: 0.106 µg/mL
  IC80, neutralization titer in TZM.bl cells: 0.364 µg/mL
  MPI, neutralization in TZM.bl cells: 100
[18]
  IC50, neutralization titer in TZM.bl cells: 17.9 µg/mL
  IC80, neutralization titer in TZM.bl cells: > 50 µg/mL
  MPI, neutralization in TZM.bl cells: 65
[2]
  neutralization IC50: 0.229 µg/mL
  neutralization IC80: 0.794 µg/mL
  neutralization MPI: 100
[19]
  IC50, neutralization titer in TZM.bl cells: 0.229 µg/mL
  IC80, neutralization titer in TZM.bl cells: 0.772 µg/mL
  MPI, neutralization in TZM.bl cells: 100
[20]
  IC50, neutralization titer in TZM.bl cells: 26.3 µg/mL
  IC80, neutralization titer in TZM.bl cells: > 50 µg/mL
  MPI, neutralization in TZM.bl cells: 71
[4]
  neutralization IC50: 0.191 µg/mL
  neutralization IC80: 0.647 µg/mL
  neutralization MPI: 100
[21]
  IC50, neutralization titer in TZM.bl cells: 0.216 µg/mL
  IC80, neutralization titer in TZM.bl cells: 0.494 µg/mL
  MPI, neutralization in TZM.bl cells: 100
[22]
  IC50, neutralization titer in TZM.bl cells: 0.056 µg/mL
  IC80, neutralization titer in TZM.bl cells: 0.192 µg/mL
  MPI, neutralization in TZM.bl cells: 100
[23]
  IC50, neutralization titer in TZM.bl cells: 0.203 µg/mL
  IC80, neutralization titer in TZM.bl cells: 0.705 µg/mL
  MPI, neutralization in TZM.bl cells: 100
[24]
  IC50, neutralization titer in TZM.bl cells: 1.15 µg/mL
  IC80, neutralization titer in TZM.bl cells: 16 µg/mL
  MPI, neutralization in TZM.bl cells: 92
[25]
  IC50, neutralization titer in TZM.bl cells: 0.041 µg/mL
  IC80, neutralization titer in TZM.bl cells: 0.111 µg/mL
  MPI, neutralization in TZM.bl cells: 100
[26]
  IC50, neutralization titer in TZM.bl cells: 0.023 µg/mL
  IC80, neutralization titer in TZM.bl cells: 0.064 µg/mL
  MPI, neutralization in TZM.bl cells: 100
[7]
  neutralization IC50: 0.144 µg/mL
  neutralization IC80: 1.05 µg/mL
  neutralization MPI: 100
[27]
  IC50, neutralization titer in TZM.bl cells: 0.129 µg/mL
  IC80, neutralization titer in TZM.bl cells: 0.431 µg/mL
  MPI, neutralization in TZM.bl cells: 100
[28]
  neutralization IC50: 0.063 µg/mL
  neutralization IC80: 0.176 µg/mL
  neutralization MPI: 100
[29]
  neutralization IC50: 0.055 µg/mL
  neutralization IC80: 0.191 µg/mL
  neutralization MPI: 100
[9]
  neutralization IC50: 0.048 µg/mL
  neutralization IC80: 0.216 µg/mL
  neutralization MPI: 100
[30]
  IC50, neutralization titer in TZM.bl cells: 0.078 µg/mL
  IC80, neutralization titer in TZM.bl cells: 0.366 µg/mL
  MPI, neutralization in TZM.bl cells: 100
